Here are results for six molecules from paper PMC12756002, “Mutations in Hsp40 co-chaperone change the canonical interdomain interactions stimulating LGMDD1 myopathy” (The Journal of Biological Chemistry, 2025).

Changes are numbered by the printed parent chain. Names and notes keep the numbering of the source.

The chains are these.
T1: Sis1-FLRnq1 complex (Sis1-WT premixed with denatured Rnq1) (yeast, UniProt P25294 1-352; P25367 1-405)
T1 construct: also called Sis1-WT with client protein Rnq1
T1 sequence (looked up) 1: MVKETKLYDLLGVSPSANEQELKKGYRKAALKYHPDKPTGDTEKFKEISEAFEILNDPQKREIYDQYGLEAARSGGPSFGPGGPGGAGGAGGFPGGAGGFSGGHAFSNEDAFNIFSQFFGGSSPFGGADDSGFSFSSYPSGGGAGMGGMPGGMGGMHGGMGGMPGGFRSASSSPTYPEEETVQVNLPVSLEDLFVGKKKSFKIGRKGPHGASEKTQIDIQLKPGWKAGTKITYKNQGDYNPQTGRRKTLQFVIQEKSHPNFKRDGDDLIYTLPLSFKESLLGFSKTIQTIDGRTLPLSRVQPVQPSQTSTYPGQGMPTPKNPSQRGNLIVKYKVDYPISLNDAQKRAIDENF
T1 sequence (looked up) 2: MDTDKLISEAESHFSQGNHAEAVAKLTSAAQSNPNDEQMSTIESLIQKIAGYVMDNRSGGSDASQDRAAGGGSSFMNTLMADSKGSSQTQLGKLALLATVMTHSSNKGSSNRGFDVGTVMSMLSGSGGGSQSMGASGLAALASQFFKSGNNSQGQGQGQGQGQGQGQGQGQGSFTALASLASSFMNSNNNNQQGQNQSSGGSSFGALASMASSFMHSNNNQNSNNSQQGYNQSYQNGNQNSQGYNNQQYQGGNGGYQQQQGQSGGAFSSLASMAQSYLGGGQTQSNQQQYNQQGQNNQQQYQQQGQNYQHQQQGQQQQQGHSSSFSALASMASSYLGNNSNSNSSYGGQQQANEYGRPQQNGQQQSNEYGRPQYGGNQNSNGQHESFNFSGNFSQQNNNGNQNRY

T2: Sis1-S49V premixed with denatured Rnq1 (yeast, UniProt P25294 1-352; P25367 1-405, S49V)
T2 construct: also called Sis1-FLRnq1 complex (S49V)
T2 sequence (looked up) 1: T1 sequence (looked up) 1 with S49V
T2 sequence (looked up) 2: T1 sequence (looked up) 2

T3: Sis1-E53A premixed with denatured Rnq1 (yeast, UniProt P25294 1-352; P25367 1-405, E53A)
T3 construct: also called Sis1-FLRnq1 complex (E53A)
T3 sequence (looked up) 1: T1 sequence (looked up) 1 with E53A
T3 sequence (looked up) 2: T1 sequence (looked up) 2

T4: Sis1-E53K premixed with denatured Rnq1 (yeast, UniProt P25294 1-352; P25367 1-405, E53K)
T4 construct: also called Sis1-FLRnq1 complex (E53K)
T4 sequence (looked up) 1: T1 sequence (looked up) 1 with E53K
T4 sequence (looked up) 2: T1 sequence (looked up) 2

T5: Sis1-N56L premixed with denatured Rnq1 (yeast, UniProt P25294 1-352; P25367 1-405, N56L)
T5 construct: also called Sis1-FLRnq1 complex (N56L)
T5 sequence (looked up) 1: T1 sequence (looked up) 1 with N56L
T5 sequence (looked up) 2: T1 sequence (looked up) 2

T6: full-length Rnq1 (yeast, UniProt P25367 1-405)
T6 construct: also called FL Rnq1; Rnq1-WT
T6 sequence (looked up): T1 sequence (looked up) 2

B1: Ssa1-WT (natural protein)
chain: not shown
notes: Ssa1, yeast Hsp70; Cloned into pPROEx-Htb; cleavage of the tag follows from 'the remaining purification steps were analogous to those for Sis1-WT'; also called Hsp70; source: E. coli Rosetta 2(DE3), purified (Talon resin, steps analogous to Sis1)
B2: Sis1-WT (natural protein, yeast, UniProt P25294 1-352, looked up)
chain: T1 sequence (looked up) 1
notes: Sis1, essential yeast DNAJ (Hsp40) protein, homolog of human DNAJB6; Cloned into pPROEx-Htb (hexa-His-tag, TEV site); also called Hsp40; wild-type Sis1; source: E. coli Lemo21(DE3), purified (Talon cobalt resin, TEV cleavage, second Talon pass)
B3: Sis1-N56L (natural protein, yeast, UniProt P25294 1-352, looked up)
chain: T1 sequence (looked up) 1 with N56L
notes: Sis1, essential yeast DNAJ (Hsp40) protein, with the J-domain mutation N56L; also called homologous to DNAJB6-S57L; LGMDD1 J-domain mutant; source: E. coli Lemo21(DE3), purified (Talon cobalt resin, TEV cleavage, second Talon pass)
B4: Sis1-S49V (natural protein, yeast, UniProt P25294 1-352, looked up)
chain: T1 sequence (looked up) 1 with S49V
notes: Sis1, essential yeast DNAJ (Hsp40) protein, with the J-domain mutation S49V; also called homologous to DNAJB6-A50V; LGMDD1 J-domain mutant; source: E. coli Lemo21(DE3), purified (Talon cobalt resin, TEV cleavage, second Talon pass)
B5: Sis1-E53A (natural protein, yeast, UniProt P25294 1-352, looked up)
chain: T1 sequence (looked up) 1 with E53A
notes: Sis1, essential yeast DNAJ (Hsp40) protein, with the J-domain mutation E53A; also called homologous to DNAJB6-E54A; LGMDD1 J-domain mutant; source: E. coli Lemo21(DE3), purified (Talon cobalt resin, TEV cleavage, second Talon pass)
B6: Sis1-E53K (natural protein, yeast, UniProt P25294 1-352, looked up)
chain: T1 sequence (looked up) 1 with E53K
notes: Sis1, essential yeast DNAJ (Hsp40) protein, with the J-domain mutation E53K; also called homologous to DNAJB6-E54K; LGMDD1 J-domain mutant; source: E. coli Lemo21(DE3), purified (Talon cobalt resin, TEV cleavage, second Talon pass)

Common to all, as to details: both partners purified
The target in test [1] is T1, Sis1-FLRnq1 complex (Sis1-WT premixed …). Briefly: ELISA; denatured Rnq1 premixed with Sis1-WT or mutants (5 nM), 1 h room temperature, adsorbed onto wells; dilutions of Ssa1-WT (0-20 nM); bound Ssa1 detected with an anti-Ssa1 (Hsp70) antibody.
For test [2], the target named is T2, Sis1-S49V premixed with denatured Rnq1. The description is as above.
For test [3], the target named is T3, Sis1-E53A premixed with denatured Rnq1. The test is described as above.
Test [4] has as its target T4, Sis1-E53K premixed with denatured Rnq1. Described as above.
Test [5] has as its target T5, Sis1-N56L premixed with denatured Rnq1. The test is described as above.
In the test “Ssa1-WT” the target is B1. Briefly: ELISA; Ssa1 (200 nM) immobilised in microtiter wells; dilutions of Sis1-WT or mutants (0-50 nM); bound Sis1 detected with an anti-Sis1 antibody; no client.
A further test concerns the target T6, full-length Rnq1. Briefly: ELISA; denatured substrate (FL Rnq1 or ΔN Rnq1 400 ng, luciferase 100 ng) immobilised in microtiter wells; dilutions of Sis1-WT or mutants (0-20 or 0-25 nM) in PBS-T with 0.5% BSA, overnight at room temperature; retained Sis1 detected with an anti-Sis1 antibody.

Ssa1-WT, sequence (P10591 whole entry): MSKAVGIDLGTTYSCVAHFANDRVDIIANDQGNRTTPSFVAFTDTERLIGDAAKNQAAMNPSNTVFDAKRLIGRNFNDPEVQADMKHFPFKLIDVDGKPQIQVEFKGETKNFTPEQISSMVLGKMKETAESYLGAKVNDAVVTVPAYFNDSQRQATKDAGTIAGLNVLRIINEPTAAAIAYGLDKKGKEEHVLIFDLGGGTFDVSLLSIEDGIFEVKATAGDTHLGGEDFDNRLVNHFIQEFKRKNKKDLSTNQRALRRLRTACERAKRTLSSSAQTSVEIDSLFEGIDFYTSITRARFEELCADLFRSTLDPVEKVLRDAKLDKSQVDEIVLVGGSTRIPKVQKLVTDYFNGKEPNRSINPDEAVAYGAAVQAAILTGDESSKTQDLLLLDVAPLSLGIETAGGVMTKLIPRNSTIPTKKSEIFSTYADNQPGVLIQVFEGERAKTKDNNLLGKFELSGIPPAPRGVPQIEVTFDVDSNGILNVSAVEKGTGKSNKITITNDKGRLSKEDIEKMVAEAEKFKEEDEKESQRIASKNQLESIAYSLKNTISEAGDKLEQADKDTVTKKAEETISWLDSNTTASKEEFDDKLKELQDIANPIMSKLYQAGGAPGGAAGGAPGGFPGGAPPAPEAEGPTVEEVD

Regarding B1, the binding result in test [1], in test [2], in test [3], in test [4] and in test [5] was “binds” throughout.

As for B2, the binding result with Ssa1-WT and with full-length Rnq1 was “binds” each time.

Regarding B3, the binding result with Ssa1-WT and with full-length Rnq1 was “binds” throughout.

Regarding B4, the binding result with Ssa1-WT and with full-length Rnq1 was “binds” in each case.

For B5, the binding result with Ssa1-WT and with full-length Rnq1 was “binds” in each case.

Take B6: the binding result with Ssa1-WT and with full-length Rnq1 was “binds” throughout.
